{"source": "patent US20240009137A1", "about": "“ORAL THERAPEUTIC DELIVERY” (ROYAL MELBOURNE INSTITUTE OF TECHNOLOGY, priority 2020, published 2024)", "key": {"[1]": {"settings": "cited from earlier work"}, "[2]": {"assay": "Vancomycin in blood plasma (ELISA) after SC injection or oral capsule", "format": "in vivo, Sprague Dawley rats", "experimental": "Four male Sprague Dawley rats were used as controls. Each rat was anaesthetised with isoflurane followed by preparation of the saphenous vein. The rats were given 15 mg/kg of vancomycin via SC injection, immediately following this they were placed on a heat-mat until they regained consciousness, before being housed in pairs in boxes. Blood collection (150 μl) was taken via the saphenous vein at 0, 30-, 70-, 120-, 180-, 240- and 360-mins post-injection. The blood concentration of the protein in the blood was tested using the relevant ELISA kit for each of the proteins.\nEight male Sprague Dawley rats were used. Each rat was anaesthetised with isoflurane followed by preparation of the saphenous vein and the first blood collection (150 μl). An enteric capsule with a thick polymer coating of approximately 160 μm containing 15 mg/kg of vancomycin encapsulated in MO lipid cubic phase was then introduced via oral gavage into the rat stomach. Immediately following this they were placed on a heat-mat until they regained consciousness, before being housed in pairs. Blood collection (150 μl) was taken via the saphenous vein at 0, 35-, 50-, 120-, 180-, 240- and 360-mins post-injection.\nAll data are analysed on a Clariostar Plate Reader to determine concentration against a standard curve for the relevant drug.\nConcentrations provided in FIGS. 10-13 are the measured concentration of the drug in the blood plasma (determined using specific Elisa kits) and are in units of ng/ml. The initial drug concentration measured at the 0 time point has been set to zero in each case and other data scaled relative to this."}, "[3]": {"assay": "Fluorescence recovery after photobleaching (FRAP), diffusion coefficient", "format": "physicochemical", "experimental": "FRAP was performed on a Nikon confocal microscope. […] A bleaching and background region of interest (ROI) was used to selectively photobleach an area of the cubic phase and the fluorescence recovery curve was recorded with time. The excitation/emission wavelengths used were 553/627 nm for the octadecyl rhodamine B chloride. […] […] The open source Matlab code frap_analysis_2p5 was used to determine diffusion coefficients μ from FRAP data."}, "chymotrypsin": {"molecular_target": "T1, chymotrypsin (Bos taurus, UniProt P00766)", "T1 construct": "purchased Sigma Aldrich (Australia)", "assay": "Enzymatic degradation of insulin by chymotrypsin followed by synchrotron CD (Dichroweb)", "format": "in vitro ADME", "experimental": "SR-CD measurements were conducted in the 170-350 nm region using the CD beamline of the synchrotron radiation source ASTRID2 at ISA, Centre for Storage Ring Facilities at Aarhus University (Denmark). Suprasil Quartz cells (Hellma GmbH & Co., Germany) of nominal 0.1 mm path length (actual calibrated path lengths=102.3 and […]), requiring an approximately 30 μl sample volume, were used for measurements at 37° C. in a temperature-regulated sample holder. […] The sample measurements were obtained at 1 nm increments in wavelength, 1 sec averaging time and 1 scan for each sample. Data were mildly smoothed with a 5-point moving mean in Matlab. The online service DichroWeb was used for secondary structure content analysis of the CD spectra using the CONTIN routine and the SP175 reference set.\nChymotrypsin, which is typically found in the small intestine, was utilized as a model enzyme."}, "[4]": {"assay": "Release of insulin from bulk cubic phase (A280 of supernatant; Ritger-Peppas and Higuchi fits)", "format": "physicochemical", "experimental": "This mixture was then injected into a 1.5 mL Eppendorf tube and centrifuged at 1200 RPM for 1 min to achieve a flat surface. The height of this surface was measured to determine the diameter for subsequent surface area calculations. 150 μl of water was added on top of the cubic phase and immediately removed for T=0 time point. 150 μl of supernatant fluid was removed every 30 min over a 12 hour period for analysis and replaced with a further […] of water. A final reading was taken at 22 hour.\nMt, M0, k and n are the released quantity at time t, initial quantity encapsulated, fitting coefficient and fitting exponent, respectively. This allows for the coupling of multiple release mechanisms (e.g., diffusion-controlled, zero-order) where the diffusional exponent n, is indicative of the release mechanism and geometry of the interface and the fitting coefficient k reflects characteristics of both the matrix and the solute.\nwhere Q, C0 and D are the released concentration per unit area, initial concentration per unit volume and the diffusion coefficient, respectively. Diffusion control dictates that the release profile against √t should be linear. […] The determined parameters were compared to those found during FRAP analysis (DFRAP)."}, "[5]": {"settings": "oral enteric capsule, MO cubic phase, 15 mg/kg"}, "[6]": {"settings": "insulin in water 0.2 mg/ml, chymotrypsin 0.02 mg/ml, time 0 min"}, "[7]": {"settings": "insulin in water 0.2 mg/ml, chymotrypsin 0.02 mg/ml, time 2 min"}, "[8]": {"settings": "insulin in water 0.2 mg/ml, chymotrypsin 0.02 mg/ml, time 12 min"}}, "note": "“And” between values parts separate entries of the source, which are not always exact repeats. Equal values may be shown once."}
{"compound": "CC(C)CCCC(C)CCCC(C)CCCC(C)(O)C(O)CO", "note": "(stereo not shown) [PT, phytantriol]", "values": [{"measurement": "lipid self-diffusion coefficient", "setting": "[1]; measured using NMR in a previous study", "value": "0.3 ×10^−6 cm^2 s^−1"}]}
{"compound": "CN[C@H](CC(C)C)C(=O)N[C@H]1C(=O)N[C@@H](CC(N)=O)C(=O)N[C@H]2C(=O)N[C@H]3C(=O)N[C@H](C(=O)N[C@H](C(=O)O)c4cc(O)cc(O)c4-c4cc3ccc4O)[C@H](O)c3ccc(c(Cl)c3)Oc3cc2cc(c3O[C@@H]2O[C@H](CO)[C@@H](O)[C@H](O)[C@H]2O[C@H]2C[C@](C)(N)[C@H](O)[C@H](C)O2)Oc2ccc(cc2Cl)[C@H]1O", "note": "[vancomycin]", "values": [{"measurement": "time by which baseline values are reached", "setting": "[2]; SC injection 15 mg/kg", "value": "≤ 180", "unit": "min"}, {"measurement": "time of maximum plasma concentration", "setting": "[2]; SC injection 15 mg/kg", "value": 30, "unit": "min"}, {"measurement": "maximum drug concentration in blood plasma", "setting": "[2]; SC injection 15 mg/kg, four rats", "value": "approximately 1500 ng/ml"}, {"measurement": "bioavailability", "setting": "[2]; male, Sprague-Dawley, rat, plasma, oral enteric capsule vs SC, 15 mg/kg, read-out: overall bioavailability as % of that following SC injection", "value": 73.9, "unit": "%"}, {"measurement": "maximum drug concentration in blood plasma", "setting": "[2]; oral enteric capsule (approx. 160 μm coating), MO cubic phase, 15 mg/kg, range over rats", "value": "790 to 960", "unit": "ng/mL"}, {"measurement": "maximum drug plasma concentration as % of that following SC injection", "setting": "[2]; oral enteric capsule vs SC, 15 mg/kg", "value": 57, "unit": "%"}, {"measurement": "time by which baseline drug concentrations are reached", "setting": "[2]; [5]", "value": "≤ 180", "unit": "min"}, {"measurement": "time of maximum plasma concentration", "setting": "[2]; [5]", "value": 50, "unit": "min"}]}
{"compound": "Insulin: human recombinant insulin (Sigma Aldrich); FITC labelled insulin used for FRAP; free or encapsulated in MO or PT cubic phase", "values": [{"measurement": "Diffusion Coefficient", "setting": "[3]; MO QII^D phase at the water interface (DFRAP)", "value": "2.89 ×10^−6 cm^2 s^−1"}, {"measurement": "Diffusion Coefficient", "setting": "[3]; PT QII^D phase at the water interface (DFRAP)", "value": "4.36 ×10^−6 cm^2 s^−1"}, {"measurement": "Diffusion Coefficient", "setting": "[3]; in MO QII^D bulk cubic phase (insulin: FITC labelled, 5 mg/ml)", "value": "2.29 ×10^−6 cm^2 s^−1"}, {"measurement": "Diffusion Coefficient", "setting": "[3]; in PT QII^D bulk cubic phase (insulin: FITC labelled, 5 mg/ml)", "value": "4.17 ×10^−6 cm^2 s^−1"}, {"measurement": "Diffusion Coefficient", "setting": "[3]; in solution (free, FITC labelled insulin)", "value": "6.56 ×10^−6 cm^2 s^−1"}, {"measurement": "Diffusion Coefficient", "setting": "[3]; in solution (free, FITC labelled insulin), listed as insulin", "value": "6.6 ×10^−6 cm^2 s^−1"}, {"measurement": "diffusion coefficient higher at the interface compared to in the bulk", "setting": "[3]; stated for both lipids (MO and PT)", "value": "approximately 15%"}, {"measurement": "far UV CD spectrum, secondary structure", "setting": "chymotrypsin; insulin 0.2 mg/ml encapsulated in PT cubic phase, 30 min after addition of chymotrypsin", "value": "still largely a-helical"}, {"measurement": "far UV CD spectrum, secondary structure", "setting": "chymotrypsin; insulin 0.2 mg/ml in water, 30 min after addition of chymotrypsin", "value": "largely unordered"}, {"measurement": "near-UV CD minimum at 270 nm", "setting": "chymotrypsin; insulin 0.5 mg/ml in MO bulk cubic phase, 132 min after addition of chymotrypsin 0.05 mg/ml", "value": "may still be observed"}, {"measurement": "far UV CD spectrum, secondary structure", "setting": "chymotrypsin; insulin encapsulated in PT cubic phase, 2 hours after addition of chymotrypsin", "value": "retention of a-helical structures"}, {"measurement": "duration of protection against enzymatic degradation after addition of chymotrypsin", "setting": "chymotrypsin; insulin in lipid nanocarrier in the form of a mesophase", "value": "at least 2 hours"}, {"measurement": "time by which the near-UV CD minimum at 270 nm has essentially disappeared", "setting": "chymotrypsin; insulin in solution 0.5 mg/ml, chymotrypsin 0.05 mg/ml", "value": "≤ 9", "unit": "min"}, {"measurement": "Unordered(%)", "setting": "chymotrypsin; [6]", "value": 8, "unit": "%"}, {"measurement": "β-sheet(%)", "setting": "chymotrypsin; [6]", "value": 0, "unit": "%"}, {"measurement": "β-turns(%)", "setting": "chymotrypsin; [6]", "value": 3, "unit": "%"}, {"measurement": "β-sheet(%)", "setting": "chymotrypsin; [7]", "value": 0, "unit": "%"}, {"measurement": "β-turns(%)", "setting": "chymotrypsin; [7]", "value": 9, "unit": "%"}, {"measurement": "β-sheet(%)", "setting": "chymotrypsin; insulin in water 0.2 mg/ml, chymotrypsin 0.02 mg/ml, time 6 min", "value": 2, "unit": "%"}, {"measurement": "Unordered(%)", "setting": "chymotrypsin; [8]", "value": 41, "unit": "%"}, {"measurement": "α-helix(%)", "setting": "chymotrypsin; [8]", "value": "41% and 41.2%"}, {"measurement": "time to complete degradation", "setting": "chymotrypsin; insulin in water, no protective matrix, chymotrypsin added", "value": "less than 35 min"}, {"measurement": "insulin released over the first two hours", "setting": "[4]; from MO bulk cubic phase", "value": "approximately 15%"}, {"measurement": "release over a 24 h period", "setting": "[4]; from MO bulk cubic phase", "value": "approximately 50%"}, {"measurement": "insulin released over the first two hours", "setting": "[4]; from PT bulk cubic phase", "value": "approximately 25%"}, {"measurement": "release over a 24 h period", "setting": "[4]; from PT bulk cubic phase", "value": 60, "unit": "%"}, {"measurement": "insulin released over 2-hour time period", "setting": "[4]; from the cubic phase (lipid not specified)", "value": "approximately 20%"}, {"measurement": "k, fitting coefficient (Ritger-Peppas model)", "setting": "[4]; insulin release from MO", "value": "0.88 ± 0.06"}, {"measurement": "time to 20% release", "setting": "[4]; release from MO bulk cubic phase into aqueous sink", "value": "~4", "unit": "h"}, {"measurement": "time to 20% release", "setting": "[4]; release from PT bulk cubic phase into aqueous sink", "value": "~2", "unit": "h"}, {"measurement": "diffusion coefficient in water", "setting": "[1]; previously provided in the literature", "value": "1.5 ×10^−6 cm^2 s^−1"}]}
